Test results taken from paper PMC6900284.

Biological target: CPSF160;WDR33;CPSF30;Fip1 (human;human;human;human, UniProt Q10570;Q9C0J8;O95639-3;Q6UN15-4 1-1443;1-410;1-178;130-195, |||)
Experiment: cryo-EM structure

Sequence of CPSF160;WDR33;CPSF30;Fip1 (Q10570 whole entry, chain 1 of 4): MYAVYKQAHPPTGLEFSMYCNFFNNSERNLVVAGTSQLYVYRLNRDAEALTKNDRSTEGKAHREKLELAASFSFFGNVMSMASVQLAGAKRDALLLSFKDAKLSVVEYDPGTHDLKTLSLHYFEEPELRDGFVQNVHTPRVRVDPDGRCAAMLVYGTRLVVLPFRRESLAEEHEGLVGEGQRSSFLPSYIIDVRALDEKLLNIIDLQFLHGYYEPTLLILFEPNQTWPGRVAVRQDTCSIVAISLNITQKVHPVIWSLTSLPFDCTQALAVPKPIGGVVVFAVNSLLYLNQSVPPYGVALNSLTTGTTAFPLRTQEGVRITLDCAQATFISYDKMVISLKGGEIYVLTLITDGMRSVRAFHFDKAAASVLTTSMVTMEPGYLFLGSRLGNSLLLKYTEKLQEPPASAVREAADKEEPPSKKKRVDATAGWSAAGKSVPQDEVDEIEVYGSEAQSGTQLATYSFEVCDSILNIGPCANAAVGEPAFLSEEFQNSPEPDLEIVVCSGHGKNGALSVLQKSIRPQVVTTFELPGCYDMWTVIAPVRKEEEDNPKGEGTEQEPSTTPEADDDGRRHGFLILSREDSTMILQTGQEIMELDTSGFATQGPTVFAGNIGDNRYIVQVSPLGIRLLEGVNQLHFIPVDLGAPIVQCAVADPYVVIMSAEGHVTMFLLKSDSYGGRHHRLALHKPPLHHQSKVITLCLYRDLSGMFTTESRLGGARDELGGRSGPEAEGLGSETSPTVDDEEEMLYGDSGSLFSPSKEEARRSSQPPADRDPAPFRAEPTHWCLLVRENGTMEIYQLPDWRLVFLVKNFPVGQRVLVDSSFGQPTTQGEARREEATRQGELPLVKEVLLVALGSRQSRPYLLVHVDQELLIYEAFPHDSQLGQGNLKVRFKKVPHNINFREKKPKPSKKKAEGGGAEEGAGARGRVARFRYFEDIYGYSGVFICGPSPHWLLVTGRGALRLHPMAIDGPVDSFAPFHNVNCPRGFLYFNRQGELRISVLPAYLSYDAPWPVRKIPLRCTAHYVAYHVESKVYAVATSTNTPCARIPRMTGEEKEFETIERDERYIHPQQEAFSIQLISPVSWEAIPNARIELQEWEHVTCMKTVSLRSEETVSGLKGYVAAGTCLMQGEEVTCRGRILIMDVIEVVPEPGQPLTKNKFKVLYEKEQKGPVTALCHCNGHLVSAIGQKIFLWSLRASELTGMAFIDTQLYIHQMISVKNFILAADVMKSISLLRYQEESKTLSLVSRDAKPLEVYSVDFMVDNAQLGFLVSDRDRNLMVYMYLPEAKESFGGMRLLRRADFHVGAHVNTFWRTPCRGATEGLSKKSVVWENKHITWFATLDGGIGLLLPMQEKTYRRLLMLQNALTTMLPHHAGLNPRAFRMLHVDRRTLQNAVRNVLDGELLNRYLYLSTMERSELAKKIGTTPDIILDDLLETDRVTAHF
Sequence of CPSF160;WDR33;CPSF30;Fip1 (Q9C0J8 1-410, chain 2 of 4): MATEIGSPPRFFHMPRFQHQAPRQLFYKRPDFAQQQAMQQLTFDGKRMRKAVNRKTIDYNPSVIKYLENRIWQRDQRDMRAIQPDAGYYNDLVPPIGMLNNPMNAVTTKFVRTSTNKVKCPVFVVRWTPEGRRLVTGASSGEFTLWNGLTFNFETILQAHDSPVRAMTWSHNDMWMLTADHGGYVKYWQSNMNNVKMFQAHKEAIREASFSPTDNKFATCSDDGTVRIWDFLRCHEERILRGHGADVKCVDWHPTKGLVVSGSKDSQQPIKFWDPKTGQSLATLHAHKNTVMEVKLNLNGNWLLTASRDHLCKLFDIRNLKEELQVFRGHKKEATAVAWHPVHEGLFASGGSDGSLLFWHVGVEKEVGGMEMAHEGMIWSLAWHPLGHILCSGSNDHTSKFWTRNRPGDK
Sequence of CPSF160;WDR33;CPSF30;Fip1 (O95639 1-178, chain 3 of 4): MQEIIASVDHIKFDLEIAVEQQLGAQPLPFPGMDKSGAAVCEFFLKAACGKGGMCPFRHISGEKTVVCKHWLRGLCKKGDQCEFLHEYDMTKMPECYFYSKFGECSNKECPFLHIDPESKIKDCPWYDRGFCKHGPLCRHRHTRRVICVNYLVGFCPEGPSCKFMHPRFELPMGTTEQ
Sequence of CPSF160;WDR33;CPSF30;Fip1 (Q6UN15 145-210, chain 4 of 4): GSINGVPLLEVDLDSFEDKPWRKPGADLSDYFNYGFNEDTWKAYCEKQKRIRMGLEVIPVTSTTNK

## ACAAUAAAGG (ssRNA) [10-mer PAS RNA]
  binding result: binds
